The record followed here is patent publication US20140044644A1 (UNIVERSITY OF ZURICH, published 2014).

The target of assay [1] is ankB in mouse brain homogenate (mouse, UniProt Q8C8R3 1-3898, limits assumed). Nature of the assay: co-immunoprecipitation (ankG immunoprecipitate) from mouse brains, Western blot. The text has this:
(§1) FIG. 6: AnkG interacts directly with APP in the brain [0020] (a) AnkG and APP immunoprecipitates from human frontal cortex were immunoblotted with specific antibodies against ankG, APP and ankB. Immunoprecipitates with non-immune IgG served as a negative control. Note that APP co-immunoprecipitated with ankG and vice versa. Human brain homogenate (C) was used as positive control. (b) AnkG immunoprecipitates were obtained from arcAbeta (TG), non-transgenic (NTG) littermates and APP deficient (−/−) mouse brains. Note that APP, but not ankB, co-immunoprecipitated with ankG. Mouse brain homogenate (C) was used as positive control. (c) Primary rat hippocampal cultures were stained with antibodies against the C-terminal portion of APP (green) and with antibodies against ankG (red). Note the presence of both ankG and APP in the AIS. Scale bar=10 μm (upper panels) and Scale bar=30 μm (lower panels). […] AnkG binding to BSA-coated wells (2 mg/ml) served as negative control. Mean values (OD₄₅₀)±SEM are shown (n=6). (e) AnkG and APP immunoprecipitates from human AD hippocampus were immunoblotted with specific antibodies against APP and Caspr and L1. Immunoprecipitates with non-immune IgG served as a negative control. As already shown in (a) APP co-immunoprecipitated with ankG. Note the absence of Caspr and L1 from the immunoprecipitates. AD hippocampus homogenate (+) was used as positive control. […]

In assay [2] the target is T1, ankG in human brain homogenate (human, UniProt Q12955 1-4377, limits assumed).
T1 construct: Endogenous protein in co-immunoprecipitation; also called ankG (human frontal cortex, hippocampus, AD hippocampus)
Nature of the assay: co-immunoprecipitation (ankG immunoprecipitate) from human AD hippocampus, Western blot.
Text: as §1
On the technique in general: Immunoblotting shows a protein as a band on a membrane.

T1 sequence (Q12955 whole entry): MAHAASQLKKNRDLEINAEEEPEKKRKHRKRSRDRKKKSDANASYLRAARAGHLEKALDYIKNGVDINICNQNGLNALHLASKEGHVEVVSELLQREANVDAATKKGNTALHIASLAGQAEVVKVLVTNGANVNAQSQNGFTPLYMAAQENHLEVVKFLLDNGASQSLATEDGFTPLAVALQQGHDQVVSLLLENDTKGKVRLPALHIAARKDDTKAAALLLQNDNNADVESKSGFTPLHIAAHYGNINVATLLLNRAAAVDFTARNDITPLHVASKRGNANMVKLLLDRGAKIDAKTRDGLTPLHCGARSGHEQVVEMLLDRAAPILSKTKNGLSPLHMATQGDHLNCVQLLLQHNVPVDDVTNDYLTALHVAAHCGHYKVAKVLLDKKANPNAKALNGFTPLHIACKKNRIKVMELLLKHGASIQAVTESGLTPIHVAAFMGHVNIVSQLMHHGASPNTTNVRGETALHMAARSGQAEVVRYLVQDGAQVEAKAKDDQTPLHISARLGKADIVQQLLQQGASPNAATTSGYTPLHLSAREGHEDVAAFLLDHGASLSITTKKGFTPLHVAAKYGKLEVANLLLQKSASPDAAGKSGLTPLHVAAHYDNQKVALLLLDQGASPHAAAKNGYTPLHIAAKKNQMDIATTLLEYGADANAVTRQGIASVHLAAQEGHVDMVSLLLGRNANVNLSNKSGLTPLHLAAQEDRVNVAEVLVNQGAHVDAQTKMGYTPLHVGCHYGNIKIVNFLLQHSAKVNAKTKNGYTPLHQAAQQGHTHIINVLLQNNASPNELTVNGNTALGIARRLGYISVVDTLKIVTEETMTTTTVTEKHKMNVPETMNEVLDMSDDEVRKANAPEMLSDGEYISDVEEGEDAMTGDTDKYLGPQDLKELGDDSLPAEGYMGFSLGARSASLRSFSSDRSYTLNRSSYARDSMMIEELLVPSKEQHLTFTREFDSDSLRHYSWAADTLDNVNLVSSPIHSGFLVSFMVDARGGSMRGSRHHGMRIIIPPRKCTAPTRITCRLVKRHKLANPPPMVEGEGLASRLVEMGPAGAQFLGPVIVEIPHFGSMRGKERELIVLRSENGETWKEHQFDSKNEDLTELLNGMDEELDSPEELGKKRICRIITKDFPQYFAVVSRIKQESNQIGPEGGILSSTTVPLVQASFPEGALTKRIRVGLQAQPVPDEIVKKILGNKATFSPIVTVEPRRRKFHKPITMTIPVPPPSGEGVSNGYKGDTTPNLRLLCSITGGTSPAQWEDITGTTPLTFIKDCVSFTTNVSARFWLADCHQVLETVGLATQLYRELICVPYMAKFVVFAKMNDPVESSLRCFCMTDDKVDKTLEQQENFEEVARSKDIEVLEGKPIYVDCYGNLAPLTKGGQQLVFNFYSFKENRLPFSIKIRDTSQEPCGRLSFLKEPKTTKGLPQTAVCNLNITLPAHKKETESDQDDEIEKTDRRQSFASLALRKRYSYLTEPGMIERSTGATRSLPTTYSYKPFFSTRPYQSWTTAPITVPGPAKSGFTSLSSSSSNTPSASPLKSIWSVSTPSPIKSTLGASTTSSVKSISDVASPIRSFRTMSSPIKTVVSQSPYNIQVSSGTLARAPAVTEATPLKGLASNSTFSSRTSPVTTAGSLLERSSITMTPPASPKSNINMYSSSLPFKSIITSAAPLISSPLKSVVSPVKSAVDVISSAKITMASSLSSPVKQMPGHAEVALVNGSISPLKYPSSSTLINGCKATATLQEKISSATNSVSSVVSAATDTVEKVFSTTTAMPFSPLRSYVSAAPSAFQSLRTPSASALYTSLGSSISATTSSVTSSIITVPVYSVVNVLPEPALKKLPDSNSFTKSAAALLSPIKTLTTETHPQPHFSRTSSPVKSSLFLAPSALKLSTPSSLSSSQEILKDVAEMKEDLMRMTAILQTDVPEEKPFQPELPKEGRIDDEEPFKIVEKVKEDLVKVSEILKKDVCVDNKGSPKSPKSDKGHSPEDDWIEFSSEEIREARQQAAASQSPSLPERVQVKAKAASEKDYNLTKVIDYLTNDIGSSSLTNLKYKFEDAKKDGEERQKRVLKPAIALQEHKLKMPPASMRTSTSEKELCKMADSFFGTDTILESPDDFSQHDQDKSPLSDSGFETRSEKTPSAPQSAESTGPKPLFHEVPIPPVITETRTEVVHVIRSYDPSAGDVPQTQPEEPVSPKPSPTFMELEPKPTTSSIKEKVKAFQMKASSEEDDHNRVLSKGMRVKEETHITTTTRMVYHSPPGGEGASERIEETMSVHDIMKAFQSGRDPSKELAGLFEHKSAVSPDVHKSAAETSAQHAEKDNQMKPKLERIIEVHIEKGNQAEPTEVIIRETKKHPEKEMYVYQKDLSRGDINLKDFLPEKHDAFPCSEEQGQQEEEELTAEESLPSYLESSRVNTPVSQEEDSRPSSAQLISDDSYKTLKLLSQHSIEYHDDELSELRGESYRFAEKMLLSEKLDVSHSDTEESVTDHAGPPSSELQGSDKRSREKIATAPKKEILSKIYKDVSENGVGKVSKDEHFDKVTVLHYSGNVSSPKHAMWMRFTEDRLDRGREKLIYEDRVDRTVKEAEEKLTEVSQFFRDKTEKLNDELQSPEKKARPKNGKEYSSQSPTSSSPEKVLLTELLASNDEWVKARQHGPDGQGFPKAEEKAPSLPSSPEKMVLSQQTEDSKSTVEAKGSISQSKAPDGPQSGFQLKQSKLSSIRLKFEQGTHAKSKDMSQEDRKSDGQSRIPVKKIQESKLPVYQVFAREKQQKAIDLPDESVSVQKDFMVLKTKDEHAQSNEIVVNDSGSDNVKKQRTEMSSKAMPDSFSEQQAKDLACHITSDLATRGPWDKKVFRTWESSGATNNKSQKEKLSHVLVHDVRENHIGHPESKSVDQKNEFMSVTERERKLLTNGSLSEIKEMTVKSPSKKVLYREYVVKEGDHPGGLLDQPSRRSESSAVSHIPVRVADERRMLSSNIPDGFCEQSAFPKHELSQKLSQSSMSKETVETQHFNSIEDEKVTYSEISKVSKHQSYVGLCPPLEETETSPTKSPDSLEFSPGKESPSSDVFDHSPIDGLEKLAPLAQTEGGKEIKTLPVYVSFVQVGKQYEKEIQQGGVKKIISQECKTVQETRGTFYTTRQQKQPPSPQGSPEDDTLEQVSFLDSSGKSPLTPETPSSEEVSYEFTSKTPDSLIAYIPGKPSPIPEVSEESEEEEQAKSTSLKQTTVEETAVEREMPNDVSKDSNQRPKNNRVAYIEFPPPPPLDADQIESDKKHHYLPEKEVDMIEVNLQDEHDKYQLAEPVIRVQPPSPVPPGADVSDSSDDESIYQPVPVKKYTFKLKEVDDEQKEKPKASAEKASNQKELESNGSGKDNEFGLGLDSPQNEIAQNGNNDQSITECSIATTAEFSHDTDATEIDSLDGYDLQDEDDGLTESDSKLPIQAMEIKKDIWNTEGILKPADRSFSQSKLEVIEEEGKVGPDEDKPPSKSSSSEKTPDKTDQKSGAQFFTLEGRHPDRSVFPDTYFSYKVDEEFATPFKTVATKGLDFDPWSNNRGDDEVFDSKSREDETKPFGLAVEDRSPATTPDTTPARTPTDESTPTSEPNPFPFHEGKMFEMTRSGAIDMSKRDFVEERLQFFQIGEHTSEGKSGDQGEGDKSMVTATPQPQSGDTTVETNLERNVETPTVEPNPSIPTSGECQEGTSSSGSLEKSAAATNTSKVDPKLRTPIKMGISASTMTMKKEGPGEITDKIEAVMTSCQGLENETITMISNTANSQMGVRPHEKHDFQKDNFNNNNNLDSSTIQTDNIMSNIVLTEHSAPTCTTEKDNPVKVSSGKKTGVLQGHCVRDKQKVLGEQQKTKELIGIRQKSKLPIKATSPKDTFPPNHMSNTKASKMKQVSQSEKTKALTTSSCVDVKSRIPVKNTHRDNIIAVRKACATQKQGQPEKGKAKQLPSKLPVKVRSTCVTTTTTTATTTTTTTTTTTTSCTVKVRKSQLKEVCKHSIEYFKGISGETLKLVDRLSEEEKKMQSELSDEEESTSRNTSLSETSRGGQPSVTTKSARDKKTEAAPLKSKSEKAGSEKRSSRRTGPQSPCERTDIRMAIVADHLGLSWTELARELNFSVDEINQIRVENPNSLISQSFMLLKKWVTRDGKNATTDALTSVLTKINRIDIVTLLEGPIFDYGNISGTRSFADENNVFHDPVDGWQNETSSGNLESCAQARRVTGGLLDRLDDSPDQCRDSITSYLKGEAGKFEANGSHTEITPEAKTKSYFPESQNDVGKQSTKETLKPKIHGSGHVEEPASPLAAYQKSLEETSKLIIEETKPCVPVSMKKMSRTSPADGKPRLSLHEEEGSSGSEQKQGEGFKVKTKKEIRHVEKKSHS

B1: ankG in mouse brain homogenate (other, UniProt G5E8K5 1-1961, looked up)
chain: MSEEPKEKPAKPAHRKRKGKKSDANASYLRAARAGHLEKALDYIKNGVDVNICNQNGLNALHLASKEGHVEVVSELLQREANVDAATKKGNTALHIASLAGQAEVVKVLVTNGANVNAQSQNGFTPLYMAAQENHLEVVRFLLDNGASQSLATEDGFTPLAVALQQGHDQVVSLLLENDTKGKVRLPALHIAARKDDTKAAALLLQNDTNADVESKSGFTPLHIAAHYGNINVATLLLNRAAAVDFTARNDITPLHVASKRGNANMVKLLLDRGAKIDAKTRDGLTPLHCGARSGHEQVVEMLLDRSAPILSKTKNGLSPLHMATQGDHLNCVQLLLQHNVPVDDVTNDYLTALHVAAHCGHYKVAKVLLDKKASPNAKALNGFTPLHIACKKNRIRVMELLLKHGASIQAVTESGLTPIHVAAFMGHVNIVSQLMHHGASPNTTNVRGETALHMAARSGQAEVVRYLVQDGAQVEAKAKDDQTPLHISARLGKADIVQQLLQQGASPNAATTSGYTPLHLAAREGHEDVAAFLLDHGASLSITTKKGFTPLHVAAKYGKLEVASLLLQKSASPDAAGKSGLTPLHVAAHYDNQKVALLLLDQGASPHAAAKNGYTPLHIAAKKNQMDIATSLLEYGADANAVTRQGIASVHLAAQEGHVDMVSLLLSRNANVNLSNKSGLTPLHLAAQEDRVNVAEVLVNQGAHVDAQTKMGYTPLHVGCHYGNIKIVNFLLQHSAKVNAKTKNGYTALHQAAQQGHTHIINVLLQNNASPNELTVNGNTALAIARRLGYISVVDTLKVVTEEIMTTTTITEKHKMNVPETMNEVLDMSDDEVRKASAPEKLSDGEYISDGEEGDKCTWFKIPKVQEVLVKSEDAITGDTDKYLGPQDLKELGDDSLPAEGYVGFSLGARSASLRSFSSDRSYTLNRSSYARDSMMIEELLVPSKEQHLTFTREFDSDSLRHYSWAADTLDNVNLVSSPVHSGFLVSFMVDARGGSMRGSRHHGMRIIIPPRKCTAPTRITCRLVKRHKLANPPPMVEGEGLASRLVEMGPAGAQFLGPVIVEIPHFGSMRGKERELIVLRSENGETWKEHQFDSKNEDLAELLNGMDEELDSPEELGTKRICRIITKDFPQYFAVVSRIKQESNQIGPEGGILSSTTVPLVQASFPEGALTKRIRVGLQAQPVPEETVKKILGNKATFSPIVTVEPRRRKFHKPITMTIPVPPPSGEGVSNGYKGDATPNLRLLCSITGGTSPAQWEDITGTTPLTFIKDCVSFTTNVSARFWLADCHQVLETVGLASQLYRELICVPYMAKFVVFAKTNDPVESSLRCFCMTDDRVDKTLEQQENFEEVARSKDIEVLEGKPIYVDCYGNLAPLTKGGQQLVFNFYSFKENRLPFSIKIRDTSQEPCGRLSFLKEPKTTKGLPQTAVCNLNITLPAHKKAEKADRRQSFASLALRKRYSYLTEPSMSPQSPCERTDIRMAIVADHLGLSWTELARELNFSVDEINQIRVENPNSLISQSFMLLKKWVTRDGKNATTDALTSVLTKINRIDIVTLLEGPIFDYGNISGTRSFADENNVFHDPVDGHPSFQVELETPMGLYCTPPNPFQQDDHFSDISSIESPFRTPSRLSDGLVPSQGNIEHPTGGPPVVTAEDTSLEDSKMDDSVTVTDPADPLDVDESQLKDLCQSECAQCWASVPGIPNDGRQAEPLRPQTRKVGMSSEQQEKGKSGPDEEVTEDKVKSLFEDIQLEEVEAEEMTEDQGQAMLNRVQRAELAMSSLAGWQNETPSGSLESPAQARRLTGGLLDRLDDSSDQARDSITSYLTGEPGKIEANGNHTAEVIPEAKAKPYFPESQNDIGKQSIKENLKPKTHGCGRTEEPVSPLTAYQKSLEETSKLVIEDAPKPCVPVGMKKMTRTTADGKARLNLQEEEGSTRSEPKQGEGYKVKTKKEIRNVEKKTH
notes: also called ankG (arcAbeta, non-transgenic and APP deficient mouse brains)
With B1, the binding result in assay [1] was “no binding”.

B2: Caspr in human AD hippocampus homogenate (other, UniProt P78357 20-1384, looked up)
chain: WGYYGCDEELVGPLYARSLGASSYYSLLTAPRFARLHGISGWSPRIGDPNPWLQIDLMKKHRIRAVATQGSFNSWDWVTRYMLLYGDRVDSWTPFYQRGHNSTFFGNVNESAVVRHDLHFHFTARYIRIVPLAWNPRGKIGLRLGLYGCPYKADILYFDGDDAISYRFPRGVSRSLWDVFAFSFKTEEKDGLLLHAEGAQGDYVTLELEGAHLLLHMSLGSSPIQPRPGHTTVSAGGVLNDQHWHYVRVDRFGRDVNFTLDGYVQRFILNGDFERLNLDTEMFIGGLVGAARKNLAYRHNFRGCIENVIFNRVNIADLAVRRHSRITFEGKVAFRCLDPVPHPINFGGPHNFVQVPGFPRRGRLAVSFRFRTWDLTGLLLFSRLGDGLGHVELTLSEGQVNVSIAQSGRKKLQFAAGYRLNDGFWHEVNFVAQENHAVISIDDVEGAEVRVSYPLLIRTGTSYFFGGCPKPASRWDCHSNQTAFHGCMELLKVDGQLVNLTLVEGRRLGFYAEVLFDTCGITDRCSPNMCEHDGRCYQSWDDFICYCELTGYKGETCHTPLYKESCEAYRLSGKTSGNFTIDPDGSGPLKPFVVYCDIRENRAWTVVRHDRLWTTRVTGSSMERPFLGAIQYWNASWEEVSALANASQHCEQWIEFSCYNSRLLNTAGGYPYSFWIGRNEEQHFYWGGSQPGIQRCACGLDRSCVDPALYCNCDADQPQWRTDKGLLTFVDHLPVTQVVIGDTNRSTSEAQFFLRPLRCYGDRNSWNTISFHTGAALRFPPIRANHSLDVSFYFRTSAPSGVFLENMGGPYCQWRRPYVRVELNTSRDVVFAFDVGNGDENLTVHSDDFEFNDDEWHLVRAEINVKQARLRVDHRPWVLRPMPLQTYIWMEYDQPLYVGSAELKRRPFVGCLRAMRLNGVTLNLEGRANASEGTSPNCTGHCAHPRLPCFHGGRCVERYSYYTCDCDLTAFDGPYCNHDIGGFFEPGTWMRYNLQSALRSAAREFSHMLSRPVPGYEPGYIPGYDTPGYVPGYHGPGYRLPDYPRPGRPVPGYRGPVYNVTGEEVSFSFSTSSAPAVLLYVSSFVRDYMAVLIKDDGTLQLRYQLGTSPYVYQLTTRPVTDGQPHSINITRVYRNLFIQVDYFPLTEQKFSLLVDSQLDSPKALYLGRVMETGVIDPEIQRYNTPGFSGCLSGVRFNNVAPLKTHFRTPRPMTAELAEALRVQGELSESNCGAMPRLVSEVPPELDPWYLPPDFPYYHDEGWVAILLGFLVAFLLLGLVGMLVLFYLQNHRYKGSYHTNEPKAAHEYHPGSKPPLPTSGPAQVPTPTAAPNQAPASAPAPAPTPAPAPGPRDQNLPQILEESRSE
Consider B2, for which the binding result in assay [2] was “no binding”.
